Source: US20090130105A1 (Biogen, published 2009)
Where a chain is given by its changes, count along the chain named. In names and notes the source's numbering stands.

B1: MJF018, C06 (VL/GS3/VH) scFv with VL V15N (scFv)
scFv: DIQMTQSPLSLSASNGDRVTITCQASRDIRNYLNWYQQKPGKAPKLLIYDASSLQTGVPSRFGGSGSGTDFSFTIGSLQPEDIATYYCQQFDSLPHTFGQGTKLEIKGGGGSGGGGSGGGGSEVQLLESGGGLVQPGGSLRLSCAASGFTFSIYRMQWVRQAPGKGLEWVSGISPSGGTTWYADSVKGRFTISRDNSKNTLYLQMNSLRAEDTAVYYCARWSGGSGYAFDIWGQGTMVTVSSDDDKSFLEQKLISEEDLNSAVDHHHHHH
notes: Kabat positions
B2: MJF043, C06 (VL/GS3/VH) scFv with VL I83D (scFv)
scFv: B1 scFv with N15V, I83D
notes: Kabat positions
B3: MJF017, C06 (VL/GS3/VH) scFv with VL T74S (scFv)
scFv: B1 scFv with N15V, T74S
notes: Kabat positions
B4: MJF016, C06 (VL/GS3/VH) scFv with VL D70E (scFv)
scFv: B1 scFv with N15V, D70E
notes: Kabat positions
B5: MJF040, C06 (VL/GS3/VH) scFv with VL I83M (scFv)
scFv: B1 scFv with N15V, I83M
notes: Kabat positions
B6: MJF031, C06 (VL/GS3/VH) scFv with VL R30N (scFv)
scFv: B1 scFv with N15V, R30N
notes: Kabat positions
B7: MJF035, C06 (VL/GS3/VH) scFv with VL S72N (scFv)
scFv: B1 scFv with N15V, S72N
notes: Kabat positions
B8: MJF027, C06 (VL/GS3/VH) scFv with VL Q24K (scFv)
scFv: B1 scFv with N15V, Q24K
notes: Kabat positions
B9: MJF023, C06 (VL/GS3/VH) scFv with VL L11G, V15N (scFv)
scFv: B1 scFv with L11G
notes: Kabat positions
B10: MJF047, C06 (VL/GS3/VH) scFv with VL I83G (scFv)
scFv: B1 scFv with N15V, I83G
notes: Kabat positions
B11: MJF015, C06 (VL/GS3/VH) scFv with VH W47F (scFv, name in Kabat numbering)
scFv: B1 scFv with N15V, W169F
notes: Kabat positions
B12: MJF021, C06 (VL/GS3/VH) scFv with VL V15I (scFv)
scFv: B1 scFv with N15I
notes: Kabat positions
B13: MJF039, C06 (VL/GS3/VH) scFv with VL T20R, R30N, G63S, S72N (scFv)
scFv: B1 scFv with N15V, T20R, R30N, G63S, S72N
notes: Kabat positions
B14: MJF026, C06 (VL/GS3/VH) scFv with VL V15S; VH T110V (scFv, name in Kabat numbering)
scFv: B1 scFv with N15S, T239V
notes: Kabat positions
B15: MJF029, C06 (VL/GS3/VH) scFv with VL T20R, R30Y (scFv)
scFv: B1 scFv with N15V, T20R, R30Y
notes: Kabat positions
B16: MJF014, C06 (VL/GS3/VH) scFv with VL M4L (scFv)
scFv: B1 scFv with M4L, N15V
notes: Kabat positions
B17: MJF038, C06 (VL/GS3/VH) scFv with VL G63S, S72N (scFv)
scFv: B1 scFv with N15V, G63S, S72N
notes: Kabat positions
B18: MJF048, C06 (VL/GS3/VH) scFv with VH R83K (scFv, name in Kabat numbering)
scFv: B1 scFv with N15V, R209K
notes: Kabat positions
B19: MJF042, C06 (VL/GS3/VH) scFv with VL S77G, I83G (scFv)
scFv: B1 scFv with N15V, S77G, I83G
notes: Kabat positions
B20: MJF050, C06 (VL/GS3/VH) scFv with VH T110V (scFv, name in Kabat numbering)
scFv: B1 scFv with N15V, T239V
notes: Kabat positions
B21: MJF025, C06 (VL/GS3/VH) scFv with VL V15P (scFv)
scFv: B1 scFv with N15P
notes: Kabat positions
B22: MJF020, C06 (VL/GS3/VH) scFv with VL V15E (scFv)
scFv: B1 scFv with N15E
notes: Kabat positions
B23: MJF037, C06 (VL/GS3/VH) scFv with VL S72Y (scFv)
scFv: B1 scFv with N15V, S72Y
notes: Kabat positions
B24: MJF033, C06 (VL/GS3/VH) scFv with VL T20R, R30N; VH S21E (scFv, name in Kabat numbering)
scFv: B1 scFv with N15V, T20R, R30N, S143E
notes: Kabat positions
B25: MJF024, C06 (VL/GS3/VH) scFv with VL V15A (scFv)
scFv: B1 scFv with N15A
notes: Kabat positions
B26: MJF051, C06 (VL/GS3/VH) scFv with VL S77G, I83Q (scFv)
scFv: B1 scFv with N15V, S77G, I83Q
notes: Kabat positions
B27: MJF022, C06 (VL/GS3/VH) scFv with VL V15R (scFv)
scFv: B1 scFv with N15R
notes: Kabat positions
B28: MJF049, C06 (VL/GS3/VH) scFv with VH R83T (scFv, name in Kabat numbering)
scFv: B1 scFv with N15V, R209T
notes: Kabat positions
B29: MJF034, C06 (VL/GS3/VH) scFv with VL A51G (scFv)
scFv: B1 scFv with N15V, A51G
notes: Kabat positions
B30: conventional C06 (VL/GS3/VH) scFv (pXWU092) (scFv)
scFv: DIQMTQSPLSLSASVGDRVTITCQASRDIRNYLNWYQQKPGKAPKLLIYDASSLQTGVPSRFGGSGSGTDFSFTIGSLQPEDIATYYCQQFDSLPHTFGQGTKLEIKGGGGSGGGGSGGGGSEVQLLESGGGLVQPGGSLRLSCAASGFTFSIYRMQWVRQAPGKGLEWVSGISPSGGTTWYADSVKGRFTISRDNSKNTLYLQMNSLRAEDTAVYYCARWSGGSGYAFDIWGQGTMVTVSS
notes: also called WT C06 scFv
B31: MJF045, stabilized C06 (I83E) scFv (scFv)
scFv: B30 scFv with I83E
notes: Variant of pXWU092 with VL I83E (Kabat); also called C06 VL I83E scFv

Target: T1, human IGF-1R(1-903)-Fc (human, UniProt P08069 31-933)
T1 construct: also called hIGF-1R-Fc; SDWT; not shown: human IgG1 Fc, C-terminal tag
T1 sequence (P08069 31-933): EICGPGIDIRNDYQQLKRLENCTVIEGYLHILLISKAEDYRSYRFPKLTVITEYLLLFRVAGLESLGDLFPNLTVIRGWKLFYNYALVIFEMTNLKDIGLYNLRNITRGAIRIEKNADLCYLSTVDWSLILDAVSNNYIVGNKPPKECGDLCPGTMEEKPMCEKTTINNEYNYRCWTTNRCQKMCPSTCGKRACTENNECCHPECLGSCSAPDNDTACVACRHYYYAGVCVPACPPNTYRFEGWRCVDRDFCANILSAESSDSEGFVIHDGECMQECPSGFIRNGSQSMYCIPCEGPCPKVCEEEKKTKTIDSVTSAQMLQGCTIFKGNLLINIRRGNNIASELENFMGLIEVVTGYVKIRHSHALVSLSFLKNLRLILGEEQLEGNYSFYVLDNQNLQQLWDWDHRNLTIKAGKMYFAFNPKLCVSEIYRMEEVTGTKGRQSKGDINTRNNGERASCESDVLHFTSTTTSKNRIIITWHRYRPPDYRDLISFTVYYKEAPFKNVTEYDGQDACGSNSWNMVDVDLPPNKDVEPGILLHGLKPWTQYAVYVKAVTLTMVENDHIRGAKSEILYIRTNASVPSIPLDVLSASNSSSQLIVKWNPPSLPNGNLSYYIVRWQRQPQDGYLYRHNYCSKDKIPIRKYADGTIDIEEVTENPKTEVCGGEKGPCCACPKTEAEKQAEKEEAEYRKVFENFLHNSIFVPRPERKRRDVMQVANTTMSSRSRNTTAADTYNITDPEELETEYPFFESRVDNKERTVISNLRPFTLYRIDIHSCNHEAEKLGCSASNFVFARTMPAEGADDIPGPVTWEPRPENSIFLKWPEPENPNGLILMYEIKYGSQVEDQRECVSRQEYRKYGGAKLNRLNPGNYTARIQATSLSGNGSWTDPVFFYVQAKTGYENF
Test: biolayer interferometry (Octet), IGF-1R Fc on Protein A sensors, scFv culture supernatant
Parameters: unit not given here
Description: Individual transformed colonies were picked into deep-well 96 well dishes and processed for screening as described above. […] For off-rate analyses IGF-1R Fc was immobilized onto the surface of Protein A biosensors. […] ScFvs were allowed to bind to immobilized IGF-1R Fc for 300-seconds. Off-rate was subsequently assayed for 600 seconds.

Binder	Kd (1/sec), off-rate as tabulated (XWU092 = 1.00)
B1	1.16
B2	1.12
B3	1.02
B4	1.03
B5	0.76
B6	0.59
B7	0.54
B8	1.12
B9	0.68
B10	1.44
B11	1.37
B12	0.81
B13	0.56
B14	0.99
B15	0.68
B16	0.86

Binder	Kd (1/sec), off-rate as tabulated (XWU092 = 1.00)
B17	0.76
B18	1.37
B19	0.55
B20	1.68
B21	1.18
B22	0.76
B23	0.76
B24	0.78
B25	0.89
B26	1.1
B27	0.76
B28	1.41
B29	0.81
B30	1
B31	1.47
